Data as given in patent US6537972B1, “Compositions and methods for inhibiting human immunodeficiency virus infection by down-regulating human cellular genes” (Subsidiary No. 3., Inc., priority 1997, dated 2003).

B1: CF-210: GSE; sense, gene encoding human herpesvirus-associated ubiquitin-specific protease (HAUSP) (nucleic acid)
sense: GCATTACAAAGAGTGTTCTATGAATTACAGCATAGTGATAAACCTGTAGGAACAAAAAAGTTAACAAAGTCATTTGGGTGGGAAACTTTAGATAGCTTCATGCAACATGATGTT
B2: CF-317: GSE; antisense, gene encoding phosphatidyl-inositol 3 kinase (nucleic acid)
antisense: CCAAGCTTCCTATCTTAAGCTGGGCGTTGATATCCAGGTCACAACTATAGATGTAGTGAAACTTCTCTGCTTCCCCCATCGCACCGTCTGCAAAGGTACCACC
B3: CF-025: GSE; antisense, gene for the ND2 subunit of human NADH dehydrogenase (nucleic acid)
antisense: GAAGAAGCAGGCCGGATGTCAGAGGGGTGCCTTGGGTAACCTCTGGGACTCAGAAGTGAAAGGGGGCTATTCCTAGTTTTATTGCTATAGCCATTATGATTATTAATGATGAGTAT
B4: CF-286: GSE; sense, gene encoding human elongation factor 1 alpha (nucleic acid)
sense: CAGTTGGGGTGGGTGTCATCAAAGCAGTGGACAAGAAGGCTGCTGGAGCTGGCAAGGTCACCAAGTCTGCCCAGAAAGCTCAGAAGGCTAAATGAATATTATCCCTAATACCTGCCACCCCACTCTTAATCAGTGGTGGAAGAAC
B5: CF-273: GSE; sense, gene encoding human eukaryotic initiation factor 3 (nucleic acid)
sense: GCTCGTCAGTGTCCACCCCTCCTCGCAACTCCAGGCGCTCCTTTTTCTGCTCCATATAGAGCTCCTGGGCCATTTTCCGGTACTTCCGGAAATCTTCCATCATGGTGCGCCTTC
B6: CF-004: GSE; sense, gene encoding human 2-oxoglutarate dehydrogenase (nucleic acid)
sense: GCGCAAAGCACGCGACATGGTGGGGCAGGTGGCCATCACAAGGATTGAGCAGCTGTCGCCATTCCCCTTTGACCTCCTGCTGAAGGAGGTGCAGAAGTACCCCAA
B7: CF-128: GSE; sense, gene for the ND4 subunit of human NADH dehydrogenase (nucleic acid)
sense: TCCTAGTCCTCACAATCATGGCAAGCCAGCGCCACTTATCCAGTGAACCACTATCACGAAAAAAACTCTACCTCTCTATACTAATCTCCCTACAAATCTCCTTAATTATAATATTCACAACCACAGA
B8: CF-204: GSE; antisense, gene encoding human calnexin (nucleic acid)
antisense: GGTTGTCAATCACAGGTCGCCACCAGACACCACATCCAGGAGCTGACTCACATCTAGGGTTGGCAATCTGAGGAGCCTCCCATTCTCCATCCATGTCTTCATCCCAA
B9: CF-266: GSE; antisense, gene encoding human eukaryotic initiation factor 4B (nucleic acid)
antisense: GCCGTTCTTCTACTTCTCTTTCTCAAGCAGCAGTGTCAACAGGCTTTGCCCCTCCAAAGATAGAAGCAGCTCGAGTGGACTGGGAGGTACTAGCAGA
B10: CF-311: GSE; antisense, gene encoding a human protein tyrosine phosphatase (nucleic acid)
antisense: GGGGGCTCTGTTTGGTGGTCTCTCTAGCTGCACTGGTCTATCAAGCTGTTGGCTGGTCTCTCTCTCTGGCTGGGGATC
B11: CF-302: GSE; antisense, gene encoding CD44 (nucleic acid)
antisense: GATCCCTGGGCGCGGGGCAGGGGCCGGCGGAGGACGGGACGAGGATGGCGGACCGAACCTGGCAGAGGCTGGG
B12: CF-313: GSE; sense, gene encoding a human protein tyrosine phosphatase (nucleic acid)
sense: CATTTTGTTACATAAGGATGACTTTTTTATACAATGGAATAAATTATGGCATTTCTATTGAAATTTCAACGCTTTTGTTTCTTTGGCAACCACAC

Each molecule was assayed on HIV-1IIIB (assay: GSE selection by prevention of productive infection of CEM-ss cells by HIV-1IIIB). Details: GSE from HeLa RFE library, selected in CEM-ss cells.
Type: cell-based
Description: Additionally, a normalized RFE library made from HeLa cells was transferred into CEM-ss cells and the neo resistant population was infected with TCID50 of 3000/10^6 cells of HIV-1IIIB. This RFE library was represented by 50×10^6 independent recombinant clones. Four and seven days after infection, a purified anti-CD4 monoclonal antibody, L77 (Becton Dickinson), was added at 5 μg/ml to prevent syncytia formation. Syncytia formation is thought to be prevented by blocking the interaction between gp120 expressed on the surface of an infected cell and CD4 on the surface of an uninfected cell. […] At 10-12 days after infection, CD4^+, p24^− cell population representing uninfected cells were sorted. Genomic DNA from the CD4^+, p24^− cells was purified and used for PCR amplification of inserts with the vector-derived primers. The amplified mixture was digested with EcoRI and BamHI and cloned back into the retroviral vector. The selection was repeated for additional rounds.
In order to determine p24 expression in HIV-infected cells, the cells were first washed twice with Assay Buffer. About 10^6 cells were suspended in 100 μl Assay Buffer, mixed with 2 ml of Ortho PermeaFix Solution (Ortho Diagnostics), and incubated for 40 min. at room temperature. After centrifugation at 1200 rpm for 4 min. at 4° C., the cells were resuspended in 2 ml Wash Buffer (500 ml PBS, 25 ml fetal bovine serum, 1.5% bovine serum albumin and 0.0055% EDTA) for 10 min. at room temperature. After centrifugation, the cells were resuspended in 50 μl Wash Buffer and mixed with 1:500 dilution of an IgG22, antibody for 20 min. at 4° C., followed by incubation with 5-10 μl of anti-p24 antibody (KC57-FITC, Coulter) for 30 min. at 4° C. The cells were then washed twice with Wash Buffer and analyzed by flow cytometry.

Molecule | suppression of HIV infection by the GSE
B1 | suppresses HIV infection
B2 | suppresses HIV infection
B3 | suppresses HIV infection
B4 | suppresses HIV infection
B5 | suppresses HIV infection
B6 | suppresses HIV infection
B7 | suppresses HIV infection
B8 | suppresses HIV infection
B9 | suppresses HIV infection
B10 | suppresses HIV infection
B11 | suppresses HIV infection
B12 | suppresses HIV infection
